From article PMC5862564
Several values for one entry are separate records, joined by “and”; a condition that tells them apart may be missing. Identical values can stand only once.

Tests used:
[1] = molecular target: FYB fused N-terminally to Gaussia princeps luciferase fragment 1, O15117-3; assay: GPCA; settings: read off a plot
[2] = molecular target: SKAP2N1 (SKAP2 with Gaussia princeps luciferase fragment 1 at its N-terminal end) (UniProt O75563); assay: GPCA; settings: read off a plot
HaloTag-FYB (human) = HaloTag-FYB (human) (UniProt O15117); assay: pull-down + split reporter (BiFC, NanoBiT); HaloTag-fused hook captured from HEK293T lysate on HaloLink resin, 6 washes with PBS 0.1% Tween; luminescence of the co-expressed GPCA pair on the resin; ratio of cells with the HaloTag vector to cells with the pCNeo vector expressing the same protein

Chain of FYB fused N-terminally to Gaussia princeps luciferase fragment 1, O15117-3 (O15117 other isoform, or with tags, fused parts or gaps): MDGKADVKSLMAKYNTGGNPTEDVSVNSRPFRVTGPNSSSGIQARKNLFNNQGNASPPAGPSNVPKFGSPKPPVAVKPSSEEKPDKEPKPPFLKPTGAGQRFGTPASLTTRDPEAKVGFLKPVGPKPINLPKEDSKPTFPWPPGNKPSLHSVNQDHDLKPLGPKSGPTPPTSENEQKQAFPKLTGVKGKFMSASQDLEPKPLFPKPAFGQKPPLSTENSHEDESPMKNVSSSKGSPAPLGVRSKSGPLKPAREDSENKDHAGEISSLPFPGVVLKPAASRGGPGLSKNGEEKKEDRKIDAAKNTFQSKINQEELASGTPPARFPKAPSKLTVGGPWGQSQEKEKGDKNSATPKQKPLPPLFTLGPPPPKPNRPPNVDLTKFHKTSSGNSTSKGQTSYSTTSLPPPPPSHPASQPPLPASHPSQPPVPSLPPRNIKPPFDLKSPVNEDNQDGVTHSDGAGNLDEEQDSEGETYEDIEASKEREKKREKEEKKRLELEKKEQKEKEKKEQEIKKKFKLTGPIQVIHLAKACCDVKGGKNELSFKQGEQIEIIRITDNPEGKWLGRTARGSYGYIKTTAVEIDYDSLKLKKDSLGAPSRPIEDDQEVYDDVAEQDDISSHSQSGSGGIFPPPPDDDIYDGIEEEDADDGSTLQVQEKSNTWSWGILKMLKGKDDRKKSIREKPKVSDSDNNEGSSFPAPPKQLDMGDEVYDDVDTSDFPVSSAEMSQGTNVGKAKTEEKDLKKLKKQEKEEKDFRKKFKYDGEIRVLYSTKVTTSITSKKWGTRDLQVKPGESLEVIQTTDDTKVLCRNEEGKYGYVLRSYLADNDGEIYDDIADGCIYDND

| Substance | response ([1]; HCK-P249A 0 ng, with A23187, parent: est. 850) [NLR] | response ([1]; HCK-P249A 0 ng, without A23187, parent: est. 280) [NLR] | response ([1]; HCK-P249A 25 ng, with A23187, parent: est. 1000) [NLR] | response ([1]; HCK-P249A 25 ng, without A23187, parent: est. 190) [NLR] | response ([1]; HCK-P249A 50 ng, with A23187, parent: est. 730) [NLR] | response ([1]; HCK-P249A 50 ng, without A23187, parent: est. 540) [NLR] | response ([1]; HCK-P249A 100 ng, with A23187, parent: est. 480) [NLR] | response ([1]; HCK-P249A 100 ng, without A23187, parent: est. 570) [NLR] | response ([1]; with A23187, parent: est. 760) [NLR] | response ([1]; without A23187 (NT), parent: est. 390) [NLR] | response ([2]; with A23187, parent: est. 320) [NLR] | response ([2]; without A23187 (NT), parent: est. 240) [NLR] | luminescence ratio (HaloTag vector to pCNeo control) (HaloTag-FYB (human)) |
| --- | --- | --- | --- | --- | --- | --- | --- | --- | --- | --- | --- | --- | --- |
| SKAP2 V24D; F27D; V28E | 2000 | 1000 | 2500 | 570 | 1900 | 1400 | 1300 | 1500 | 1500 | 540 | 4.9 | 2.2 |  |
| SKAP2 homo-dimer of two hemi-luciferase-fused SKAP2 (the pair generating the luciferase signal) (from UniProt O75563 1-359) (complex) |  |  |  |  |  |  |  |  |  |  |  |  | 49.1 and 135 and 51.8 |
| SKAP2-DIMPH hetero-dimer of hemi-luciferase-fused DIMPH and hemi-luciferase-fused SKAP2 (from UniProt O75563 1-222; O75563 1-359) (complex) |  |  |  |  |  |  |  |  |  |  |  |  | 125 and 308 and 160 |
